# Data as given in patent US20090136516A1 (DUKE UNIVERSITY, published 2009).
# T1: human CD20 (human, UniProt P11836 1-297)
# T1 construct: whole, on cells; also called cell surface CD20
# T1 sequence (looked up): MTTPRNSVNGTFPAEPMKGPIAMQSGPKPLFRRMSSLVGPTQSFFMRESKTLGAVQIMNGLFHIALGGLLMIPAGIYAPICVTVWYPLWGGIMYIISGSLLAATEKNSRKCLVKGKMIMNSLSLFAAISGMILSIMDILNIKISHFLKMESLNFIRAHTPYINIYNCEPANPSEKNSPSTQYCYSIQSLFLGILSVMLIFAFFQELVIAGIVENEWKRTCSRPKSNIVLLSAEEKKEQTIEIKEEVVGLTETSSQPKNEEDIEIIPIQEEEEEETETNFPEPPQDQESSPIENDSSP
# T2: mouse CD20 (mouse, UniProt P19437 1-291)
# T2 construct: whole, on cells; Endogenous mouse CD20 on primary B cells; also called cell-surface CD20
# T2 sequence (looked up): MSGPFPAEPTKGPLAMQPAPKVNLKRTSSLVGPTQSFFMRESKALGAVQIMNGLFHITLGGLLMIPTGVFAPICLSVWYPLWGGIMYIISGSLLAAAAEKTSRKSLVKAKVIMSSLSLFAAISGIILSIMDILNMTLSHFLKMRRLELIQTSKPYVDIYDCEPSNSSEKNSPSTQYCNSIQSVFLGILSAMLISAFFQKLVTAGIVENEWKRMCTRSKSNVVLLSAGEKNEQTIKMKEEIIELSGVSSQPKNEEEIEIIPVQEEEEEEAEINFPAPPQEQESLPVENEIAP
# T3: mouse CD20 (mouse) (UniProt P19437)
# T3 sequence (looked up): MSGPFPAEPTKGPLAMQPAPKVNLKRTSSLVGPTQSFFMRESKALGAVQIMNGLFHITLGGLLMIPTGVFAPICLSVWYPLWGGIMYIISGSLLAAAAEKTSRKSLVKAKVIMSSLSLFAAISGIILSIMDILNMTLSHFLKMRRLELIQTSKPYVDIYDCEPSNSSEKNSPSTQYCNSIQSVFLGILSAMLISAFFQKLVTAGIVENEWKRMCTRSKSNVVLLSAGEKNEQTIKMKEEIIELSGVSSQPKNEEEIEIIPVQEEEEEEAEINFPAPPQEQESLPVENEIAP
# Tests used:
# human CD20 [1] = molecular target: T1, human CD20; test: flow cytometry, BJAB cells, secondary antibody alone (background)
# human CD20 [2] = molecular target: T1, human CD20; test: flow cytometry, Raji cells, secondary antibody alone (background)
# human CD20 [3] = molecular target: T1, human CD20; test: flow cytometry, DHL-4 cells, secondary antibody alone (background)
# human CD20 [4] = molecular target: T1, human CD20; test: flow cytometry, human blood B cells, secondary antibody alone (background)
# mouse CD20 [5] = molecular target: T2, mouse CD20; test: flow cytometry, mouse spleen CD19+ B cells, control staining (background)
# mouse CD20 (mouse) = molecular target: T3, mouse CD20 (mouse); test: flow cytometry, mouse spleen CD19+ B cells, mAb at 0.5 µg/mL, isotype-specific secondary antibody
# human CD20 [6] = molecular target: T1, human CD20; test: indirect immunofluorescence, flow cytometry, BJAB cells, saturating mAb
# Protocol: (§1) Reactivity of human blood lymphocytes and the Raji, BJAB or DHL-4 B lymphoblastoid cell lines with anti-CD20 monoclonal antibodies at saturating concentrations or with secondary antibody alone (control). The anti-CD20 monoclonal antibodies were used at concentrations that were determined to be saturating and that gave optimal staining. 1F5, B9E9 and 1H4 (IgG2a) monoclonal antibodies were used as ascites fluid diluted 1:200. HB20-3, -4 and -25 monoclonal antibodies were used as tissue culture supernatant fluid. B1 monoclonal antibody was used at either 10 μg/mL of purified monoclonal antibody or as tissue culture supernatant fluid. In all cases, monoclonal antibody staining was visualized using PE-conjugated isotype-specific secondary antibodies with flow cytometry analysis. Values represent the mean linear fluorescence intensity of staining for each B cell population as determined by flow cytometry analysis. Results are representative of those obtained in ≧3 experiments.
# human CD20 [7] = molecular target: T1, human CD20; test: indirect immunofluorescence, flow cytometry, Raji cells, saturating mAb
# Protocol: as §1
# human CD20 [8] = molecular target: T1, human CD20; test: indirect immunofluorescence, flow cytometry, human blood B cells, saturating mAb
# Protocol: as §1
# human CD20 [9] = molecular target: T1, human CD20; test: indirect immunofluorescence, flow cytometry, DHL-4 cells, saturating mAb
# Protocol: as §1
# mouse CD20 [10] = molecular target: T2, mouse CD20; test: flow cytometry, mouse spleen CD19+ B cells, mAb at 0.5 µg/mL, isotype-specific secondary antibody
# Protocol: Twelve mouse anti-mouse CD20 monoclonal antibodies, with representatives of each IgG isotype, were assessed for their ability to bind B cells and deplete them in vivo. Each monoclonal antibody reacted uniformly with CD19⁺ primary B cells in vitro with characteristic mean fluorescence intensities that were independent of monoclonal antibody isotype (FIG. 6A). When monoclonal antibody reactivity with primary B cells was assessed over a range of monoclonal antibody concentrations, most monoclonal antibodies reached saturating levels of staining when used at concentrations between 1-10 μg/mL (FIG. 6B). […] When all monoclonal antibodies were used at 0.5 μg/mL, each monoclonal antibody reacted uniformly with CD19⁺ primary B cells with characteristic low to high mean fluorescence intensities (FIG. 6C, Table 5). Similar results were obtained using a mouse CD20 cDNA-transfected pre-B cell line with anti-mouse Ig secondary antibody. Based on this analysis, the MB20-1 monoclonal antibody represented monoclonal antibodies with the lowest relative affinity/avidity, while the MB20-18 monoclonal antibody reacted strongly with B cells and stained B cells at the highest levels of all 12 anti-CD20 monoclonal antibodies (Table 5).
# mouse CD20 [11] = molecular target: T2, mouse CD20; test: indirect immunofluorescence, flow cytometry, cultured mouse spleen B cells at 37 C; design: reference not given here
molecule,measurement,setting,value
secondary antibody alone (control),mean linear fluorescence intensity (mean linear fluorescence intensity),human CD20 [1],10
same,mean linear fluorescence intensity (mean linear fluorescence intensity),human CD20 [2],3
same,mean linear fluorescence intensity (mean linear fluorescence intensity),human CD20 [3],1
same,mean linear fluorescence intensity (mean linear fluorescence intensity),human CD20 [4],1
isotype-matched control monoclonal antibodies (antibody),B cell reactivity (mean linear fluorescence intensity) (mean linear fluorescence intensity),mouse CD20 [5],< 6
"MB20-16 monoclonal antibody (antibody, part only; not given: light chain, V domains shown, part only) VH: EVQLQESGPELVKPGASVKMSCKASGYTFTDYNLHWVKQSHGQSLEWIGYINPNNGGATYNQKFTGKATLTVNRSSSTAYMELRSLTSDDSAVYYCAEIYDGYYWGQGTTLTVSS",B cell reactivity (mean linear fluorescence intensity) (mean linear fluorescence intensity),mouse CD20 (mouse),170
1H4 (IgG2a) anti-CD20 monoclonal antibody (antibody) chain 1: QVQLQQPGAELVKPGASVKMSCKTSGYTFTSYNVHWVKQTPGQGLEWIGAIYPGNGDTSFNQKFKGKATLTADKSSSTVYMQLSSLTSEDSAVYYCARSNYYGSSYVWFFDVWGAGTTGTGSS chain 2: QIVLSQSPTILSASPGEKVTMTCRASSSVSYMDWYQQKPGSSPKPWIYATSNLASGVPARFSGSGSGTSYSLTISRVEAEDAATYYCQQWISNPPTFGAGTKLELK,mean linear fluorescence intensity,human CD20 [6],240 mean linear fluorescence intensity
same,mean linear fluorescence intensity,human CD20 [7],244 mean linear fluorescence intensity
same,mean linear fluorescence intensity,human CD20 [8],75 mean linear fluorescence intensity
same,mean linear fluorescence intensity,human CD20 [9],98 mean linear fluorescence intensity
"MB20-11 monoclonal antibody (antibody, part only; not given: light chain, V domains shown, part only) VH: EVQLQESGPELVKPGASVKMSCKASGYKITDYNMHWVKQSHGKSLEWIGYIAPYNGGTTYNQKFKGKATLTVNKSSSTAYMELRSLTSEDSAVYYCAGALDYWGQGTSVTVSS",B cell reactivity (mean linear fluorescence intensity) (mean linear fluorescence intensity),mouse CD20 [10],158
same,increase in antibody binding over time,mouse CD20 [11],97%
